In patent US20230094463A1, “ANTIBODIES THAT DISRUPT THE INTERACTION OF GAL3 AND INSULIN RECEPTOR OR INTEGRINS AND METHODS OF USE THEREOF” (TrueBinding, Inc., priority 2019, published 2023):

B1: 23H9.2E4: anti-Gal3 monoclonal antibody (antibody, V domains shown)
VH: QIQLVQSGPELKKPGETVKISCKASGYTFTTYAMSWVKQAPGKGLKWMGWINTYSGVPTYADDLKGRFAFSLETSASTAYLQINNLKNEDTATYFCARGPYAMDYWGQGTSVTVSS
VL: DIQMTQTTSSLSASLGDRVTISCSASQGINNYLNWYQQKPDGTVKLLIYYASSLHSGVPSRFSGSGSGTDYSLTISNLEPEDIATYYCQQYSQVPYTFGSGTKLEIK
B2: mTB001: anti-GAL3 antibody used in mouse models (antibody)
heavy: QIQLVQSGPELKKPGETVKISCKASGYTFTNYGMNWVKQAPGKGLKWMGWINTNTGEPTYVEEFKGRFAFSLETSASTAYLQINNLKNEDTATYFCAPYDNFFAYWGQGTLVTVSAAKTTPPSVYPLAPVCGDTTGSSVTLGCLVKGYFPEPVTLTWNSGSLSSGVHTFPAVLQSDLYTLSSSVTVTSSTWPSQSITCNVAHPASSTKVDKKIEPRGPTIKPCPPCKCPAPNAAGGPSVFIFPPKIKDVLMISLSPIVTCVVVDVSEDDPDVQISWFVNNVEVHTAQTQTHREDYNSTLRVVSALPIQHQDWMSGKEFKCKVNNKDLGAPIERTISKPKGSVRAPQVYVLPPPEEEMTKKQVTLTCMVTDFMPEDIYVEWTNNGKTELNYKNTEPVLDSDGSYFMYSKLRVEKKNWVERNSYSCSVVHEGLHNHHTTKSFSRTPGK
light: DIVITQDELSNPVTSGESVSISCRSSKSLLYKDGKTYLNWFLQRPGQSPQLLIYLMSTHASGVSDRFSGSGSGTDFTLEISRVKAEDVGVYYCQQLVDYPLTFGAGTKLELKRADVAPTVSIFPPSSEQLTSGGASVVCFLNNFYPKDINVKWKIDGSERQNGVLNSWTDQDSKDSTYSMSSTLTLTKDEYERHNSYTCEATHKTSTSPIVKSFNRNEC

What was measured:
Jurkat T cell adhesion = Jurkat T cell adhesion assay on Gal-3/antibody coated plates; type: cell-based; conditions: recombinant Gal-3 pre-incubated with antibody, 10^5 cells per well
Protocol: To evaluate whether anti-GAL3 antibodies that block GAL3 interaction with integrin negatively influence lymphocyte homing (an important aspect in development of inflammatory diseases), a cell-based assay utilizing lymphocyte Jurkat T cell line was employed. Briefly, recombinant Gal-3 ([…] in PBS) and antibody ([…] in PBS) were incubated for 30 minutes on ice prior to the coating mixture transfer to the 96-well plate and additional overnight incubation. The coating mixture was then removed and the plate was blocked with 0.5% BSA for 45 minutes. Jurkat T cells (10^5 cells per well) were plated in serum free RPMI. Following thirty-minute incubation, the cells were gently washed once with serum free medium and fixed with 4% PFA for 10 minutes. The adhered cells were further stained with SYTOX™ Orange Nucleic Acid staining (ThermoFisher, S11368) and analyzed by Cytation 1 Cell Imaging Multi-Mode Reader (Biotek).

human Gal3 = target: T1, human Gal3 (Homo sapiens, UniProt P17931); experiment: Antibody binning assays (competition for binding to Gal3); conditions: binning per Examples 3 and 18
T1 construct: His; purchased AcroBio GA3-H5129
Protocol: To determine whether Gal3-binding antibodies with Gal3-INSR blocking activity bind to the same or overlapping regions of the Gal3 molecule, antibody binning assays were performed to assess the ability of antibodies to simultaneously bind Gal3. Amine-reactive probes were loaded onto a Gator biosensor (Probe Life, Palo Alto, Calif.), equilibrated in dH20 for 60 seconds, dipped into 100 μl EDC 0.2M/NHS 0.05M activation buffer for 30 seconds, then dipped into a solution of […] human Gal3-His in 10 mM NaOAc buffer, pH 5 until binding was saturated, and quenched in 1 M ethanolamine pH 8.5 for 300 seconds. Following Gal3-His loading, tips were dipped in 20 μg/mL saturating antibody, then successively dipped into 5 μg/mL competing antibody.
The epitope binning assay was done in a sandwich format on the high-throughput SPR-based Carterra LSA unit (CarterraBio, Salt Lake City, Utah). First, the purified antibodies were diluted to 10 μg/ml concentration in 10 mM NaOAc (pH 5.0) and then were covalently coupled via amine group to HC200M chip activated by EDC and S-NHS to immobilize antibodies to different positions of a 384-spot array. One hundred thirty-eight binning cycles were run on the array of immobilized antibodies. In each cycle, first, human Gal3 (AcroBio GA3-H5129) was injected over the entire array to bind to different antibodies (primary antibody), followed by one antibody (secondary antibody) selected among the panel of 150 anti-GAL3 antibodies tested. At the end of each cycle, the array was regenerated by 10 mM Glycine (pH 2.0) to remove bound antigen and secondary antibody from the array. The data analysis was done using the Epitope software by CarterraBio.

[1] = system: Gal3 peptides (SEQ ID NOs: 3-26); experiment: Gal3 peptide library binding ELISA (epitope mapping); set-up: species or system human; conditions: Peptide 8 (SEQ ID NO: 10)
Protocol: (§1) To identify the epitopes to which Gal3 antibodies with and without Gal3-INSR blocking activity bound, a library of 24 amino acid peptides representing portions of Gal3, depicted in FIG. 27, was produced and the ability of each peptide to bind Gal3 antibodies was evaluated by ELISA. At least 2 μg/ml of hGal3 peptide in 50 μl of PBS or 0.1 μg/ml of full-length human Gal3 protein (GenScript) and human Galectin-3 protein (Acro Biosystems, GA3-H5129) were diluted in PBS (Corning, 21-030-CM) to concentrations of at least 2 μg/ml or 0.1 μg/ml, respectively, and added to the wells of a 96-well ELISA plate (Thermo Fisher, 44-2404-21). After incubating the plate at 4° C. overnight, the plate was washed three times with PBST (PBS with 0.05% Tween 20 [VWR, 0777]). The plate was then blocked for an hour with 2% BSA (EMD Millipore, 126609) in PBST at room temperature with gentle rocking. Thereafter, the 2% BSA in PBST was discarded and human Galectin-3 hybridoma supernatants or antibodies were diluted in 2% BSA in PBST to concentrations of at least 0.1 μg/ml and added to the wells. The plate was incubated for an hour at room temperature with gentle rocking and then washed three times with PBST. Afterwards, Goat Anti-Mouse IgG-HRP (Jackson ImmunoResearch, 115-036-1461) or Goat Anti-Rat IgG HRP (Abcam, ab205720) diluted in 2% BSA in PBST (1:4000) were added to the wells. The plate was incubated for 30 minutes to 1 hour at room temperature with gentle rocking and then washed three times with PBST. TMB substrate (Thermo Scientific, 34029) was then added to each well. The reaction was stopped with 1M HCl (JT Baker, 5620-02) and read using a plate reader (Molecular Devices) at absorbance of 450 nm.
(§2) Human Gal3 peptides (LifeTein, custom order) and human Gal3 proteins (R&D Systems, 8259-GA; TrueBinding, QCB200349) were diluted in PBS (Corning, 21-030-CM) to concentrations of at least 100 μg/mL (peptides) or 1 μg/mL (proteins), and added to the wells of several 96-well ELISA plates (Thermo Fisher, 44-2404-21). After incubating the plates at 4° C. overnight, the plates were washed three times with PBST (PBS with 0.05% Tween 20 [VWR, 0777]). The plates were then blocked for an hour with 2% BSA (EMD Millipore, 126609) in PBST at room temperature with gentle rocking. Thereafter, the 2% BSA in PBST was discarded and Gal3-binding antibodies (reformatted hIgG4 [S228P]) were diluted in 2% BSA in PBST to concentrations of 5 μg/mL and added to the wells. The plates were incubated for an hour at room temperature with gentle rocking and then washed three times with PBST. Afterwards, Peroxidase AffiniPure F(ab′)2 Fragment Goat Anti-Human IgG (H+L) polyclonal antibody (Jackson ImmunoResearch, 109-036-003), was diluted in 2% BSA in PBST (1:4000) and added to the wells. The plates were incubated for 1 hour at room temperature with gentle rocking and then washed three times with PBST. TMB substrate (Thermo Scientific, 34029) was then added to each well. The reaction was stopped with 1M HCl (JT Baker, 5620-02) and read using a plate reader (Molecular Devices) at absorbance of 450 nm.

[2] = target: T2, Gal3 peptides (SEQ ID NOs: 3-26) (Homo sapiens, UniProt P17931); experiment: as above
T2 construct: a library of 24 amino acid peptides representing portions of Gal3; purchased LifeTein custom order
Protocol: as §1, §2

NOD/ShiLtJ mice = conditions: 10 mg/kg twice a week
From the text: To assess the therapeutic potential of anti-GAL3 antibody in Type I diabetes, a mouse model of diabetes type I was used. Briefly, seven-weeks-old female NOD/ShiLtJ mice (Jackson lab (001976)) and control group animals NOR/LtJ (Jackson Lab (002050)) were housed in standard disposable cages with filter tops at room temperature with a 6:00-18:00 day-night cycle. Mice were allowed to rest for a week before initiating glucose monitoring. The antibody treatment was initiated when glucose levels reach 250-400 (mg/dL) for two consecutive days. To establish glucose levels, the blood samples were collected from tail vein of the experimental animals following housing in clean cages with water and no food for 4-6 hours. The collected samples were analyzed by HemoCue Glucose 201 Analyzer and cuvettes (Mercedes Scientific 110706). […] At the end stage, the plasma samples were collected from symptomatic animals. C-peptide levels were determined by Alpco Mouse C-peptide ELISA kit (Alpco, 80-CPTMS-E01).

T1 sequence (P17931 whole entry): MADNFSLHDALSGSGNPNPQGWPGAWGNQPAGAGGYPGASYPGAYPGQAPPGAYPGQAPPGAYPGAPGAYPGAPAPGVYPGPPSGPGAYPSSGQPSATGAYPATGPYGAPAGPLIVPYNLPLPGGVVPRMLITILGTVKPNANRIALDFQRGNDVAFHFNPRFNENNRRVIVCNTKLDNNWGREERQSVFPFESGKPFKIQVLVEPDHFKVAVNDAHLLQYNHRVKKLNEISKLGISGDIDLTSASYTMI

| Molecule | inhibition of Jurkat T cell adhesion (Jurkat T cell adhesion) | epitope bin (competitive binding to Gal3) (human Gal3) | binding to Gal3 Peptide 8 [1] | binding to Gal3 Peptide 1 ([2]; Peptide 1 (SEQ ID NO: 3), amino acids 1-20 of Gal3) | binding to Gal3 Peptide 6 ([2]; Peptide 6 (SEQ ID NO: 8), amino acids 51-70 of Gal3) | binding to Gal3 Peptide 7 ([2]; Peptide 7 (SEQ ID NO: 9), amino acids 61-80 of Gal3) | levels of blood glucose (NOD/ShiLtJ mice) | survival (NOD/ShiLtJ mice) | C-peptide levels (NOD/ShiLtJ mice; plasma ELISA) |
| --- | --- | --- | --- | --- | --- | --- | --- | --- | --- |
| B1 | did not inhibit | bin 3 | bind | bind and bound | bind and bound | bind and bound |  |  |  |
| B2 |  |  |  |  |  |  | stabilizing the levels of blood glucose | prolonged survival | restoring C-peptide levels |
